Experimental findings from patent US20080199851A1 are described below.

Values joined by “and” are separate entries in the source; they are usually repeats but may differ in a detail not shown here. Equal entries are not always repeated.

Test [1] addresses Recombinant H5 hemagglutinin. Kind of test: lateral-flow sandwich, 3C8 line + 3G4-gold, 50 uL buffer, 15 min.
The target in test [2] is Recombinant H5 hemagglutinin. Kind of test: lateral-flow sandwich, 3C8 line + 3G4-gold, 50 uL buffer, 20 min.
Test [3] deals with Recombinant H5 hemagglutinin. Kind of test: lateral-flow sandwich, 3C8 line + 3G4-gold, 50 uL buffer, 25 min.
In test [4] the target is Recombinant H5 hemagglutinin. Nature of the test: lateral-flow sandwich, 3C8 line + 3G4-gold, 50 uL buffer, 30 min.
Test [5] has as its target Recombinant H5 hemagglutinin. Nature of the test: lateral-flow sandwich, 3C8 line + 3G4-gold, 60 uL buffer, 15 min.
Test [6] concerns the target Recombinant H5 hemagglutinin. Nature of the test: lateral-flow sandwich, 3C8 line + 3G4-gold, 60 uL buffer, 20 min.
In test [7] the target is Recombinant H5 hemagglutinin. Nature of the test: lateral-flow sandwich, 3C8 line + 3G4-gold, 60 uL buffer, 25 min.
Test [8] concerns the target Recombinant H5 hemagglutinin. Kind of test: lateral-flow sandwich, 3C8 line + 3G4-gold, 60 uL buffer, 30 min.
The target of test [9] is Recombinant H5 hemagglutinin. Nature of the test: lateral-flow sandwich, 3C8 line + 3G4-gold, 70 uL buffer, 15 min.
In test [10] the target is Recombinant H5 hemagglutinin. Nature of the test: lateral-flow sandwich, 3C8 line + 3G4-gold, 70 uL buffer, 20 min.
Test [11] deals with Recombinant H5 hemagglutinin. Kind of test: lateral-flow sandwich, 3C8 line + 3G4-gold, 70 uL buffer, 25 min.
In test [12] the target is Recombinant H5 hemagglutinin. Kind of test: lateral-flow sandwich, 3C8 line + 3G4-gold, 70 uL buffer, 30 min.
Test [13] deals with Recombinant H5 hemagglutinin. Nature of the test: lateral-flow sandwich, 3C8 line + 3G4-gold, 80 uL buffer, 15 min.
In test [14] the target is Recombinant H5 hemagglutinin. Nature of the test: lateral-flow sandwich, 3C8 line + 3G4-gold, 80 uL buffer, 20 min.
In test [15] the target is Recombinant H5 hemagglutinin. Kind of test: lateral-flow sandwich, 3C8 line + 3G4-gold, 80 uL buffer, 25 min.
Test [16] has as its target Recombinant H5 hemagglutinin. Nature of the test: lateral-flow sandwich, 3C8 line + 3G4-gold, 80 uL buffer, 30 min.
The target in test [17] is Recombinant H5 hemagglutinin. Nature of the test: lateral-flow sandwich, 3C8 line + 3G4-gold, 50 uL buffer, 15 min. The source holds these as a separate data set.
In test [18] the target is Recombinant H5 hemagglutinin. Kind of test: lateral-flow sandwich, 3C8 line + 3G4-gold, 60 uL buffer, 15 min. The source holds these as a separate data set.
Test [19] concerns the target Recombinant H5 hemagglutinin. Nature of the test: lateral-flow sandwich, 3C8 line + 3G4-gold, 70 uL buffer, 15 min. This is another data set of the same source.
In test [20] the target is Recombinant H5 hemagglutinin. Kind of test: lateral-flow sandwich, 3C8 line + 3G4-gold, 100 uL buffer, 15 min.
The target in test [21] is Recombinant H5 hemagglutinin. Kind of test: lateral-flow sandwich, 3C8 line + 3G4-gold, 100 uL buffer, 20 min.
Test [22] deals with Recombinant H5 hemagglutinin. Kind of test: lateral-flow sandwich, 3C8 line + 3G4-gold, 100 uL buffer, 25 min.
For test [23], the target named is Recombinant H5 hemagglutinin. Kind of test: lateral-flow sandwich, 3C8 line + 3G4-gold, 100 uL buffer, 30 min.

B1: monoclonal antibody 3C8 (antibody, V domains shown)
VH: QIQLVQSGPELKKPGETVKISCKASGYSFTNYGMNWVKQAPGKGLKWMGWINTYTGEPAYADDFKGRFAFSLETSASTAYLQINNLKNEDTATYFCARWNRDAMDYWGQGTSVTVSS
VL: DIVLTQSPASLAVSLGQRATISCRASESVDSSDNSLMHWYQQKPGQPPKLLIYRASNLESGIPARFSGSGSRTDFTLTINPVEADDVATYYCQQSIGDPPYTFGGGTKLEIKR
For the molecule B1, the Peak Intensity in test [1] was 55.6 and 51.1; in test [2], 62.3 and 57.3; in test [3], 63.1 and 55.4; in test [4], 62.5 and 62.6; in [5], 53.5 and 51.6; in [6], 65.7 and 63.8. Moreover, the Peak Intensity is 68.5 and 66.2 in test [7]; 68.9 and 66.5 in [8]; 45.6 and 42.1 in test [9]; 57.9 and 57 in test [10]; 60.4 and 61.7 in [11]; 60.7 and 63.9 in [12]. The Peak Intensity was 39.6 and 42.9 in test [13]; 53.7 and 57.9 in [14]; 59.8 and 64.7 in test [15]; 61.5 and 65.4 in test [16]; 56.9 and 57.8 in [17]; 50.2 and 51.2 in [18]. In addition, the Peak Intensity was 46.8 and 47.9 in test [19]; 35.2 and 30.8 in [20]; 49.2 and 44.9 in test [21]; 54.6 and 49.3 in test [22]; 55.6 and 49.8 in test [23].
